Molecular target: CH505 transmitted founder gp120 (HIV-1 CH505 transmitted/founder, UniProt M4M3Q1, strain)
Assay: SPR
Settings: both partners purified

B1: DH753 monoclonal antibody (IgG1) (antibody, V domains shown)
VH: EVHLVESGGGLVQPGGSLRLSCEVSGLTFSNSWMSWVRQAPGKGLEWVGFIKTKADGGTAAYAESVKGRFTISRDDSKNTVFLQMKSLKTEDTAVYYCQGAVVISHEYIEIWGQGALVTVSS
VL: QSVLTQPPSASEAARKSVTISCSGGSSNIGDDSVSWYQQVPGTAPKLLIYYNDRRASGVSDRFSGSKSGTSASLAINGLQSEDEADYYCAAWDDSLSAYIFGSGTRLTVL
notes: copies: 2 + 2
Does B1 bind?
Result: binds

B2: DH727.2 monoclonal antibody (IgG1) (antibody, V domains shown)
VH: QVQLVQSGAEVKKPGASVKLSCKASGNTFSIYGISWVRQAPGQGLEWMGGIIPPAGLTNYVQRFQGRVTITADTSTTTVYMELSSLTSEDTAVYYCAIRIGRGFDYWGQGVLVTVSS
VL: DIVMTQSPLSLPVTPGETASISCRSSQSLLDSEDGNTYLEWYLQKPGQSPQALIYEASNRASGVPDRFSGSGSDTDFTLKISRVEAEDVGIYYCMQTIEYPFTFGPGTKVDIK
notes: copies: 2 + 2
Does B2 bind?
Result: binds

Reference: article PMC6602974 (Nature Communications, 2019)
